Test results reported in PMC4176175, “Requirements for 5′dRP/AP lyase activity in Ku”.
Positions count from the first letter of the chain named.

Tests used:
Test in all cases: EMSA; 1 nM Ku, 1 nM DNA, 15 min; EMSA: 1 nM Ku with 1 nM radiolabeled 30 bp DNA, 15 min, no streptavidin/UDG; buffer, salt, pH and temperature not given in the material
Details in all cases: protein: recombinant;recombinant, tags: C-terminal His6;, copies: 1;1, label: 3' 32P-cordycepin on strand 1, 5' overhang 3 nt (GUG) on strand 1, 5' overhang 1 nt (T) on strand 2, paired by the added 3' cordycepin
[1] = target: T1, yeast Ku70 WT;yeast Ku80 WT (Saccharomyces cerevisiae;Saccharomyces …, UniProt P32807;Q04437 1-602;1-629, |)
T1 sequence 1: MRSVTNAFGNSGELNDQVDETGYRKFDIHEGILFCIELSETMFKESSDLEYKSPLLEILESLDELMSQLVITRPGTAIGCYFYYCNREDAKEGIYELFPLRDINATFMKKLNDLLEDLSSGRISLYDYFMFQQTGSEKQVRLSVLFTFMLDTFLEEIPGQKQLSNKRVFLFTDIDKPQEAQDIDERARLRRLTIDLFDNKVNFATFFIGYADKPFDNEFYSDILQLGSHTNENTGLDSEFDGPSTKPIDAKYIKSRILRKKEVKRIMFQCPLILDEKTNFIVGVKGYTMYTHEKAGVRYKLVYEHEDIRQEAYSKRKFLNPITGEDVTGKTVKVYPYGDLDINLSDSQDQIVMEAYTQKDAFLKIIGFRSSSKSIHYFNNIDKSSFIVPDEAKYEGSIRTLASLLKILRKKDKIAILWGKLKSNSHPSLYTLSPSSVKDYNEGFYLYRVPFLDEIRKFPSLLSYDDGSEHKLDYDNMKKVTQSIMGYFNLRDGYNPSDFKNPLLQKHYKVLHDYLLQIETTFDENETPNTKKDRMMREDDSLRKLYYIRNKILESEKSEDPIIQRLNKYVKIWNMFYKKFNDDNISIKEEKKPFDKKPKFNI
T1 sequence 2: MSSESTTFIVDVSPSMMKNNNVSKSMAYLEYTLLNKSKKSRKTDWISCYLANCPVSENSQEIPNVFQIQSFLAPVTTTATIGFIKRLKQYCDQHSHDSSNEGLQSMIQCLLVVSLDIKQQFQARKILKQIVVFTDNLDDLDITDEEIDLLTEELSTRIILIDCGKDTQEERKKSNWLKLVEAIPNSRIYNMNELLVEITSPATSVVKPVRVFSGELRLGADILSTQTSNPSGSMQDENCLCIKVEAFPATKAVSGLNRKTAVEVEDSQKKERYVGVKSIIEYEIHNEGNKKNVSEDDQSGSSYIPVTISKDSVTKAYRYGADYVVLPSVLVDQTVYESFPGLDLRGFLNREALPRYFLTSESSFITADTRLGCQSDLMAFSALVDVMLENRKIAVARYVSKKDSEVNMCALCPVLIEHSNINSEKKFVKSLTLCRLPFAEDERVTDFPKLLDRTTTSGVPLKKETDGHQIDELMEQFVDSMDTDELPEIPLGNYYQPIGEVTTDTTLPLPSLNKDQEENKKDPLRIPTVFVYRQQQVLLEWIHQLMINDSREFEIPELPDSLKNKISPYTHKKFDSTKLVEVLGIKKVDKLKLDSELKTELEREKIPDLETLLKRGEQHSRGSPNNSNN

[2] = target: T2, Xenopus Ku70 WT;Xenopus Ku80 WT (Xenopus laevis;Xenopus laevis, UniProt Q9W626;Q6DDS9 1-611;1-726, |)
T2 sequence 1: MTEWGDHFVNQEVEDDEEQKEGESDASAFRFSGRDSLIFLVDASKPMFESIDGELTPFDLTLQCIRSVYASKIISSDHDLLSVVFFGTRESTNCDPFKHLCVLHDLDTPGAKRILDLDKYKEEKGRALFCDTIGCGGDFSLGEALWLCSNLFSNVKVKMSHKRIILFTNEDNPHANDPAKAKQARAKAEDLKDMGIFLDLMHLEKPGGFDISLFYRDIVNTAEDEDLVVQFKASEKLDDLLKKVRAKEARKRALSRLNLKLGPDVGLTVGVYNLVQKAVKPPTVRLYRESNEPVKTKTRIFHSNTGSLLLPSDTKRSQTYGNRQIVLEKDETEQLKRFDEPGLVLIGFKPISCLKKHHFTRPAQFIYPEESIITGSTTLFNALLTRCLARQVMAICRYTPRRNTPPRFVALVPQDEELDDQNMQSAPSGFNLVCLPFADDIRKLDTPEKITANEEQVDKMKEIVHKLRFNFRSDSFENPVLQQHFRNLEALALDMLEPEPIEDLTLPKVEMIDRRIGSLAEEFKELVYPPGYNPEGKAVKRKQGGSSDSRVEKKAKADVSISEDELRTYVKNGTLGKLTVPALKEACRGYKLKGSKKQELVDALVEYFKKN
T2 sequence 2: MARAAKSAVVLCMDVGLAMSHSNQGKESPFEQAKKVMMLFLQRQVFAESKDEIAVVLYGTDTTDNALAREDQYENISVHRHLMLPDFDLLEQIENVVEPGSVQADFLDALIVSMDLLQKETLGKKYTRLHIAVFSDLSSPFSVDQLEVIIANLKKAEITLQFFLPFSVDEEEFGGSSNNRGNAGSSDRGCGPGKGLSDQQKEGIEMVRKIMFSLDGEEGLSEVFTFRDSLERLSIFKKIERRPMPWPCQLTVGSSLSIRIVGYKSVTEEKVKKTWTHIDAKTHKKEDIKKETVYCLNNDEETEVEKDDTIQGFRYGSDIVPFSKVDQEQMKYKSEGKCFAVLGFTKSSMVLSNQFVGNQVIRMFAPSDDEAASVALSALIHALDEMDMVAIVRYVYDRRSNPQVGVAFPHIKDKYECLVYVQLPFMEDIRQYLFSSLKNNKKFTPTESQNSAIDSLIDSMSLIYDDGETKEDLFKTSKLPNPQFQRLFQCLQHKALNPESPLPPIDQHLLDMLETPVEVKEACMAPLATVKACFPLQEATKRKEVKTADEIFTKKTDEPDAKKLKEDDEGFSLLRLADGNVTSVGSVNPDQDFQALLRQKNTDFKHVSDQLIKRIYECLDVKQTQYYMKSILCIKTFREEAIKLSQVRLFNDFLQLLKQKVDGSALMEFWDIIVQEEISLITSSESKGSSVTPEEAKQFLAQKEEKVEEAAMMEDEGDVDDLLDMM

[3] = target: T3, yeast Ku70 2A;yeast Ku80 WT (Saccharomyces cerevisiae;Saccharomyces …, UniProt P32807;Q04437 1-602;1-629, K25A;K161A|)
T3 sequence 1: T1 sequence 1 with K25A, K161A
T3 sequence 2: T1 sequence 2

Measured: binding result

B1: 30 bp EMSA substrate (dsDNA)
DNA 1: GUGGAAATCAAACGTAAGTAGAATCCAAAGTCT
DNA 2: TAGACTTTGGATTCTACTTACGTTTGATTTC
modifications: deoxyuridine at position 2 of strand 1 (no UDG treatment for EMSA); 5' phosphate on strand 1; 5' biotin-TEG on strand 2
binds: [1] | [2] | [3]
